In patent publication US10724009B2, “Cannabichromenic acid synthase from Cannabis sativa” (priority 2014, dated 2020):
Several values for one entry are separate records, joined by “and”; a condition that tells them apart may be missing. Equal values may be shown once.

What was measured:
[1] = system: mouse tetrad model; details: at high concentrations (DeLong et al., 2011); cited from earlier work
[2] = target: T1, recombinant CBCAS (Cannabis sativa, UniProt Q33DQ2, H543R/W244C); assay: CBCAS assay: conversion of CBGA to CBCA, products analysed by HPLC/LCMS; format: biochemical; details: for inhibition of recombinant CBCAS by additive: FIG. 4, effect of additive on CBCA production, high concentrations; for formation of CBCA from CBGA: recombinant enzyme expressed in Pichia pastoris, CBGA incubated 14 h
T1 construct: alpha-factor signal peptide (vector encoded) (N); made in house; host or cells: Pichia pastoris strain X33
Description: FIG. 4 depicts optimal conditions for CBCAS activity. […] Values are expressed as a fraction of CBCA produced (CBCA A265 nm/(CBGA A265 nm+CBCA A265 nm)*100).
Reactions using media were performed by incubating 10 μmols CBGA in 500 μL of clarified culture media for 14 h. Reactions using hydroxyl-apatite fractions were performed with 100 μL of the fraction incubated with 10 nmols of CBGA for 14 h. Completed reactions were acidified with one drop of 4 N HCl and extracted twice with 400 μL of acetonitrile. After centrifugation, the organic phases were pooled and evaporated to dryness. Products were resuspended in 20 μL of 50% methanol, of which 10 μL was analyzed by LCMS. Products were separated with a Waters Alliance HPLC using a binary solvent system (solvent A: 10% acetonitrile, 0.05% formic acid; solvent B: 99.95% acetonitrile, 0.05% formic acid) and an Ascnetis C18 5 cm×2.1 mm 2.7 μm column (Sigma). Initial conditions: 55% A at 0.25 mL/min. Ramp to 5% A from 0-8 min, hold at 5% A for 2.5 min, return to initial conditions over 2 min and equilibrate at initial conditions for 7 min. Ultraviolet spectra were obtained using photodiode array detection at 200-350 nm.

Molecule: CCCCCc1cc(O)c2c(c1)OC(C)(CCC=C(C)C)C=C2 (stereo not drawn) [CBC, cannabichromene]
- THC-like activity in a mouse tetrad model [1]: shows THC-like activity

Molecule: C[S+](C)[O-] [DMSO, reference compound]
- inhibition of recombinant CBCAS by additive [2]: inhibited by high concentrations

Molecule: Triton X-100 [reference compound]
- inhibition of recombinant CBCAS by additive [2]: inhibited by high concentrations

B1: recombinant CBCAS: Cannabis sativa cannabichromenic acid synthase (SEQ ID NO:2) expressed in Pichia pastoris with alpha-factor signal peptide (protein)
chain: MNCSTFSFWFVCKIIFFFLSFNIQISIANPQENFLKCFSEYIPNNPANPKFIYTQHDQLYMSVLNSTIQNLRFTSDTTPKPLVIVTPSNVSHIQASILCSKKVGLQIRTRSGGHDAEGLSYISQVPFAIVDLRNMHTVKVDIHSQTAWVEAGATLGEVYYWINEMNENFSFPGGYCPTVGVGGHFSGGGYGALMRNYGLAADNIIDAHLVNVDGKVLDRKSMGEDLFWAIRGGGGENFGIIAACKIKLVVVPSKATIFSVKKNMEIHGLVKLFNKWQNIAYKYDKDLMLTTHFRTRNITDNHGKNKTTVHGYFSSIFLGGVDSLVDLMNKSFPELGIKKTDCKELSWIDTTIFYSGVVNYNTANFKKEILLDRSAGKKTAFSIKLDYVKKLIPETAMVKILEKLYEEEVGVGMYVLYPYGGIMDEISESAIPFPHRAGIMYELWYTATWEKQEDNEKHINWVRSVYNFTTPYVSQNPRLAYLNYRDLDLGKTNPESPNNYTQARIWGEKYFGKNFNRLVKVKTKADPNNFFRNEQSIPPLPPRHH
modifications: alpha-factor signal peptide; Cannabis Sativa
- temperature of maximal activity ([2]; 35, 40, 45 and 50° C. tested): 40 °C
- pH optimum ([2]; FIG. 4, effect of buffer and buffer pH on CBCA production): 5.5
- temperature optimum ([2]; FIG. 4, effect of incubation temperature on CBCA production): 40 degrees
- pH of maximal activity ([2]; pH 3.5 to 7 tested): 5 and 5.5
- formation of CBCA from CBGA [2]: catalyzed the formation of CBCA from CBGA
- formation of CBCA from CBGA ([2]; listed as CBCAS): produces CBCA
